What is called Kd is the concentration at which binding is half-saturated.

In test [1] the target is CXCL8-(1-66) P32G mutant, 15N-labelled (human, 15N-labelled). In words: NMR titration.
The target of test [2] is CXCL8-(1-66) truncated monomer (human). In words: NMR titration.

B1: CXCR1 N-terminal domain peptide (peptide)
chain: LWTWFEDEFANATGMPPVEKDYSPCLVVTQTLNK
For B1, the Kd in test [1] worked out at 11 ± 1 µM; in test [2] it was 12 ± 2 µM.

The values above are taken from PMC4157346 (The Biochemical journal, 2013).
